Measured values reported in patent US20250109177A1 (BROAD INSTITUTE, published 2025).
Values belong to the binder of their own block, whether it stands above or below them. Where no end group is shown, it is not given here.

Legend:
[1] = target: T1, DDB1·CRBN precomplexed with pomalidomide (human, UniProt Q96SW2 1-442; Q16531 1-1140); experiment: bio-layer interferometry, immobilized MBP-degron, DDB1·CRBN precomplexed with pomalidomide
T1 construct: also called CRBN·pomalidomide

[2] = target: T2, DDB1·CRBN precomplexed with PT-179 (human, UniProt Q96SW2 1-442; Q16531 1-1140); experiment: bio-layer interferometry, immobilized MBP-degron, DDB1·CRBN precomplexed with PT-179
T2 sequence (Q96SW2 whole entry, chain 1 of 2): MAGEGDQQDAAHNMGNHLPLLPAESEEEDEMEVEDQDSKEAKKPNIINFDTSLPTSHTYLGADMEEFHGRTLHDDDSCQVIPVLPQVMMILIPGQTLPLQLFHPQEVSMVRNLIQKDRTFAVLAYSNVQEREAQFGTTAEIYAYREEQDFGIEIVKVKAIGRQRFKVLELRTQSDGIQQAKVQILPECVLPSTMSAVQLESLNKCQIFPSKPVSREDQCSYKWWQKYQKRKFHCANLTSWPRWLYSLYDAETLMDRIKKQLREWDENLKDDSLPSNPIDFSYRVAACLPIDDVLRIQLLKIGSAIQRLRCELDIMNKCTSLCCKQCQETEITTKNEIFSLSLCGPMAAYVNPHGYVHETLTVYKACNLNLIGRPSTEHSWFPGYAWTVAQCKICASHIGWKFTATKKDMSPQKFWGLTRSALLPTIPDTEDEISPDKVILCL
T2 sequence (Q16531 whole entry, chain 2 of 2): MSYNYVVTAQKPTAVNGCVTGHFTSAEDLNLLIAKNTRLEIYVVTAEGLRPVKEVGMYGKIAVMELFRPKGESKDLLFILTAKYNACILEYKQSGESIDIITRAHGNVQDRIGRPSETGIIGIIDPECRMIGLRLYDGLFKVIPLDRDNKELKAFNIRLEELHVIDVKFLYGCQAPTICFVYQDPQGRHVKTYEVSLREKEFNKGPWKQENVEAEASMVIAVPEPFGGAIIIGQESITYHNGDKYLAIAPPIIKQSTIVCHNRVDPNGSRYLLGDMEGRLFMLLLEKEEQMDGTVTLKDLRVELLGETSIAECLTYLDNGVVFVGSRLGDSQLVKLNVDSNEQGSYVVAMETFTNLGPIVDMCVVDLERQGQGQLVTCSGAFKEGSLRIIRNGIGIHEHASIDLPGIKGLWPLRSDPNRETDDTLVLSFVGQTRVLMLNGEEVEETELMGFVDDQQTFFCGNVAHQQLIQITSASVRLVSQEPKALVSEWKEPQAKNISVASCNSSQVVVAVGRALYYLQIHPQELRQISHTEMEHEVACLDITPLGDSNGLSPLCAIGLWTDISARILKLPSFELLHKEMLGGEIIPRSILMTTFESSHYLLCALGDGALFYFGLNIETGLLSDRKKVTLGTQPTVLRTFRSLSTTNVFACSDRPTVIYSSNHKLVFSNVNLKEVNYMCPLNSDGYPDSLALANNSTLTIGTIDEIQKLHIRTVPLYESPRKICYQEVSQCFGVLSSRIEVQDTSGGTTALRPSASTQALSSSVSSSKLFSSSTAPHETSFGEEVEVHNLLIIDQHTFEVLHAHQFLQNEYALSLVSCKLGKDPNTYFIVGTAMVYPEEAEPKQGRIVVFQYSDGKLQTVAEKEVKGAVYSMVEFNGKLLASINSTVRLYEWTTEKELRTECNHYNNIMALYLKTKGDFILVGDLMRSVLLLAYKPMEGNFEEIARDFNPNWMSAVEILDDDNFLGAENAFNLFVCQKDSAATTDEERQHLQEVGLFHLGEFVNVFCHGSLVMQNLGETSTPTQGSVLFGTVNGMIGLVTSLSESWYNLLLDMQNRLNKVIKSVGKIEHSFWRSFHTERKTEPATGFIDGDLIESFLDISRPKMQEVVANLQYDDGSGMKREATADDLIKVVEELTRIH

[3] = target: T2, DDB1·CRBN precomplexed with PT-179; experiment: BLI, immobilized MBP-degron; ratio of the KD values
[4] = target: T2, DDB1·CRBN precomplexed with PT-179; experiment: BLI, immobilized MBP-degron, DDB1·CRBN precomplexed with PT-179
[5] = target: T1, DDB1·CRBN precomplexed with pomalidomide; experiment: BLI, immobilized MBP-degron, DDB1·CRBN precomplexed with pomalidomide

T1 sequence (Q96SW2 whole entry, chain 1 of 2): as the sequence (Q96SW2 whole entry, chain 1 of 2) above
T1 sequence (Q16531 whole entry, chain 2 of 2): as the sequence (Q16531 whole entry, chain 2 of 2) above

- koff [1]: 0.0161 s⁻¹
- kon [1]: 54600 M⁻¹ s⁻¹
- koff [2]: 0.00528 s⁻¹
- kon [2]: 42900 M⁻¹ s⁻¹
- fold preference for CRBN precomplexed with PT-179 over CRBN precomplexed with pomalidomide [3]: 2.4 fold
- Kd [4]: 123 nM
- Kd [5]: 295 nM
B1: MBP-SD40 (minimal evolved degron SD40 fused to maltose binding protein) (designed binder, not shown: large carriers)
chain: LLLFCPICGFTCRQKGNLLRHINLHTGEKLFKYHLY
modifications: cysteine pairing not given here; also: fused to maltose binding protein, limits and linker not given here
notes: Expressed and purified from E. coli, immobilized for BLI; also called MBP-degron

- koff [1]: 0.0509 s⁻¹
- kon [1]: 235000 M⁻¹ s⁻¹
- Kd [5]: 217 nM
B2: MBP-SD0 (super degron SD0 fused to maltose binding protein) (designed binder, not shown: large carriers)
chain: FNVLMVHKRSHTGERPLQCEICGFTCRQKGNLLRHIKLHTGEKPFKCHLCNYACQRRDAL
notes: also called MBP-degron
